In patent publication US20030235558A1:

Molecular target: ^125I-labeled multiubiquitin chains
Assay: GST fusion on glutathione agarose beads, ^125I-labeled multiubiquitin chains, gamma-counting

| Multiubiquitin Chain Bound (%) | Multiubiquitin Chain Bound cpm [cpm] | Substance |
| --- | --- | --- |
| 100 | 5210 | GST fused p62 ubiquitin binding region (GST.p62C259) (from UniProt O08623 363-439) |
| 17 | 877 | GST fused p62 ubiquitin binding region mutant L394/L395 → A/A (from UniProt O08623 363-439) |
